As usually defined, the Kd is the equilibrium constant for the complex coming apart.

“And” between values parts separate entries of the source, which are not always exact repeats. Equal values may be shown once.

Experiment [1] concerns the target MERS-CoV S S1 subunit (MERS-S1) (MERS-CoV EMC isolate, UniProt K9N5Q8 19-748). The experiment is described as follows: ForteBio Octet kinetic measurement (FIG. 3A). Background: In BLI a coated tip is dipped into the sample, and binding shifts an interference pattern.
Experiment [2] has as its target T1, MERS-S on pseudotyped VSV particles (MERS-S carrying a 16-a.a. cytoplasmic tail truncation) (MERS-CoV, UniProt K9N5Q8 18-1337). Briefly: cell-based or functional assay.
The target in experiment [3] is T1, MERS-S on pseudotyped VSV particles …. Briefly: cell-based or functional assay. The source holds these as a separate data set.
The target of experiment [4] is T2, MERS-S1^A domain (MERS-CoV EMC isolate, UniProt K9N5Q8 19-357).
T2 sequence: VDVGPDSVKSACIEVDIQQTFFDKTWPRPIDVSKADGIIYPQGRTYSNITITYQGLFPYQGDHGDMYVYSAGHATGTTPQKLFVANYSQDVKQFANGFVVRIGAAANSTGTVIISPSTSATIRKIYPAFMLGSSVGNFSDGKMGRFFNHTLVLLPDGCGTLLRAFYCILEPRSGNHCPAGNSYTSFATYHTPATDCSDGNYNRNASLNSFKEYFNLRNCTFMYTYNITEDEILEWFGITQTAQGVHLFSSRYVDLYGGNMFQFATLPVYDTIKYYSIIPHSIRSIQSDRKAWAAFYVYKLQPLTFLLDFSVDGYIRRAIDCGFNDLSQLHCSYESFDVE
The experiment is described as follows: ELISA on coated MERS-S1^A, OD450 [D]. In general terms: In an ELISA, binding on a coated surface is turned into a signal by an enzyme label.

B1: 1.10e9 (antibody, V domains shown)
VH: QVQLQQSGPGLVKPSQTLSLTCAISGDSVSSNSAAWNWIRQSPSRGLEWLGRTYYRSKWYNDYAVSVKSRITINPNTSKNQFSLQLNPVTPEDTAVYFCAREWFGEGYFDLWGRGTLVTVSS
VL: EIVMTQSPATLSVSPGESATLSCRASQTIYSNLAWYQRKPGQAPRLLIYRASTRATGIPARFSGSGSGTEFTLTISSLQSEDFAVYCCQQFNNWPYTFGQGTKLEIKR
B1 yielded a Kd in experiment [1] of about 0.44 nM.

B2: 5.5e11 (antibody, V domains shown)
VH: QVQLVQSGAEVKKPGSSVKISCKASGGTFSTHAFTWVRQAPGQGLEWIGRIIPIFDTPKYAQKFQGRVTIAADISTSTVFMELSSLRSEDTAVFYCAREGYYISGSYRDAFDIWGQGTMVTVSS
VL: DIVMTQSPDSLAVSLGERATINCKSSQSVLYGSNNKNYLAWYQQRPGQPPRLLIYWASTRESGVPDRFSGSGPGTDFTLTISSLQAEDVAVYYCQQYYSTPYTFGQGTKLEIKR
B2 came in with a dissociation constant (Kd) in experiment [1] of about 0.3 nM. For the same molecule, the “IC50, neutralization of MERS-S pseudovirus infectivity (H2L2)” value (shortened to “IC50, neutralization … (H2L2)”) in experiment [2] is about 1.7 ng/mL.

B3: 1.6f9 (antibody, V domains shown)
VH: QVQLVQSGAEVKKPGSSVKVSCKASGGAFSAYVITWVRQAPGQGLEWMGGIIPVFGTAHYAQKFQGRVTITADKSTSTAFMELSSLRSEDTAVYYCAREGDIEVVLAGRGYFDYWGQGTLVTVSS
VL: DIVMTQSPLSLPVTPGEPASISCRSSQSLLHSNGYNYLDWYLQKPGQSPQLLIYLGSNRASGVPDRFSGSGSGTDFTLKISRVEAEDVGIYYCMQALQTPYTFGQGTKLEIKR
B3 gave a Kd in experiment [1] of about 0.53 nM. For the same molecule, in experiment [2], the “IC50, neutralization … (H2L2)” value is about 0.38 ng/mL and the “IC50, neutralization of MERS-S pseudovirus infectivity (human IgG1)” value is about 19 ng/mL. Further, the “IC50, neutralisation of MERS-S VSV pseudovirus on Vero cells” value in experiment [3] was 0.006 µg/ml and 0.04 nM. Also, the binding result in experiment [4] is listed as “no binding (tested: about 5x10^5 ng/ml)”.

B4: 1.6e1 (antibody, V domains shown)
VH: QVQLVQSGAEVKKPGSSVKVSCKASGGAFSAYAISWVRQAPGQGLEWMGGIIPIFGTANYAQKFQGRVTITADTSTSTAYMELSSLRSEDTAVYYCAREGDIEVVLAARGFFDYWGQGTLVTVSS
VL: DIQMTQSPSSLSASVGDRVTITCRASQGISNYLAWYQQKPGKVPKLLIYAASTLQSGVPSRFSGSGSGTDFTLTISSLQPEDVATYYCQKYNSAPWTFGQGTKVEIKR
In experiment [1], B4 came in with a Kd of about 0.11 nM.

B5: 5.11h8 (antibody, V domains shown)
VH: QVQLVQSGAEVKKPGSSVKVSCKASGGAFSAYAIDWVRQAPGQGLEWMGGIIPIFGTAHYAQKLQGRVTITADKSTSTAYMELSSLRSEDTAVYYCAREGDSGLVLAARGFFDYWGQGTLVTVSS
VL: DIQMTQSPSSLSASVGDRVTITCRASQGISNYLAWYQQKPGKVPKLLIYAASTLQSGVPSRFSGSGSGTDFTLTISSLQPEDVATYYCQKYNSAPWTFGQGTKVEIKR
B5 came in with a Kd in experiment [1] of about 0.68 nM.

B6: 1.6c2 (antibody, V domains shown)
VH: QVQLVQSGTEVKKPGSSVKVSCKASGGAFSAYAITWVRQAPGQGLEWMGGIIPIFGTAHYAQKFQGRVTITADKSTSTAFMELSSLRSEDTAVYYCAREGDIEVVLAGRGYFDYWGQGTLVTVSS
VL: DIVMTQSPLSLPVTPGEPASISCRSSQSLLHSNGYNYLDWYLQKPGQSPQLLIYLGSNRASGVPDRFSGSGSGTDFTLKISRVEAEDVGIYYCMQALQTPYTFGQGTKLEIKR
Regarding B6, in experiment [1], the dissociation constant Kd is about 0.86 nM.

B7: 7.9g10 (antibody, V domains shown)
VH: QVQLVQSGAEVKKPGSSVKVSCKASGGTFSSYAISWVRQAPGQGLEWMGGIIPIFGTANYAQKFQGRVTITADKSTNTAYMELSSLRSEDTAVYYCAREDITMVRGVITNYWYFDLWGRGTLVTVSS
VL: DIQMTQSPSSLSASVGDRVTITCRASQDISNYLAWYQQKPGKVPKLLIYAASTLQSGVPSRFSGSGSGTDFTLTISSLQPEDVATYYCQKSNNAPLTFGGGTKVEIKR
In turn, B7 returned a Kd in experiment [1] of about 0.2 nM.

B8: 2.9d7 (antibody, V domains shown)
VH: QRKLVESGGGVVQPGRSLRLSCAVSGLIFSNYGMHWVRQAPGKGLEWVAVIWYDGSNTYYTDSVKGRFTISRDNSKNTLYLQMNSLRAEDTAVYYCARDRGMTAPGPGTYYYFYGMDVWGQGTTVTVSS
VL: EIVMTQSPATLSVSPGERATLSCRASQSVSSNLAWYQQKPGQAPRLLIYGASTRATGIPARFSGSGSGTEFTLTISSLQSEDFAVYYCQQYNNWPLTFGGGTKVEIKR
B8 yielded a dissociation constant (Kd) in experiment [1] of about 0.35 nM.

B9: 7.9g1 (antibody, V domains shown)
VH: QVQLVESGGGVVQPGRSLRLSCAASGFTFSTYAMHWVRQAPGKGLEWVAVIWYDGSNKYYADSVKGRLTISRDNSKNTLFLQMNSLRAEDTAVYYCARDRGITTTDTGYYYYYYGLDIWGQGTTVTVSS
VL: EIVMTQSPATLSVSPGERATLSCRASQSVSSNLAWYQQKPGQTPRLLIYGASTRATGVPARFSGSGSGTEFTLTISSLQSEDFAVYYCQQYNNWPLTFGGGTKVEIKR
B9 displayed a Kd in experiment [1] of about 0.21 nM.

B10: 7.9c10 (antibody, V domains shown)
VH: QVQLVESGGDVVQPGRSLRLSCAASGITFSNYGMHWVRQAPGKGLEWVAVIWYDGSNKYYADSVKGRFTISRDNSKNTLYLQMNSLRAEDTAVYYCARDRGMTGTTWEYYYYYGMDVWGQGTTVTVSS
VL: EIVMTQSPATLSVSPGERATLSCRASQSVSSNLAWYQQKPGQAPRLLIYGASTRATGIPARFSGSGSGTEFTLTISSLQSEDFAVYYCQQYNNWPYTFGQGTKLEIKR
B10: in experiment [1], the equilibrium dissociation constant (Kd) is about 0.11 nM.

B11: 7.7h8 (antibody, V domains shown)
VH: QVQLVESGGGVVQTGRSLRLSCAASGFTFSAYAMHWVRQAPGKGLEWVTFIGYEESNKYHADSVKGRFTISRDNSKNTLYLQMNSLRAEDTAVYYCARDRGISVAATWDYYYYYGMDVWGQGTTVTVSS
VL: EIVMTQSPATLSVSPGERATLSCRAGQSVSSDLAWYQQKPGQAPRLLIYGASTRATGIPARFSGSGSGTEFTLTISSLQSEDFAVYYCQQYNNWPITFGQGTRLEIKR
The molecule B11 returned a Kd in experiment [1] of about 0.54 nM.

B12: 7.3a9 (antibody, V domains shown)
VH: QVQLVESGGGVVQPGRSLRLSCAASGFNFSSDGMHWVRQAPGKGLEWVAVIWYDGRNKYYADSVKGRFTISRDNTKNTLYLQMNSLRAEDTAVYYCARDRGITMGRGPYYYYYGMDVWGQGTTVTVSS
VL: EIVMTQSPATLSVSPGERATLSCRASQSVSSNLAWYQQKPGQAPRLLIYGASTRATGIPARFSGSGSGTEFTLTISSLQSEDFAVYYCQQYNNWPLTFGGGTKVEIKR
B12: in experiment [1], the equilibrium dissociation constant (Kd) is about 0.43 nM.

B13: 7.6c11 (antibody, V domains shown)
VH: QVQLVESGGGVVQPGRSLRLSCAASGFTFSSDGMHWVRQAPGKGLEWVAVIWYDGSSEYYGDSVKGRFTISRDNSKNTLYLQMNSLRAEDTAVYYCARDRGITMGRGVYYYYYGMDVWGQGTTVTVSS
VL: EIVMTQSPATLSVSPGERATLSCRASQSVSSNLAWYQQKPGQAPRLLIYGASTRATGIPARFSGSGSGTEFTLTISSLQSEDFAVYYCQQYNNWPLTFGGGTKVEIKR
The molecule B13 displayed a Kd in experiment [1] of about 0.4 nM.

B14: 5.2b7 (antibody, V domains shown)
VH: QVQLVESGGGVVQPGRSLRLSCAASGFTFSSDGMHWVRQAPGKGLEWVAVIWFDGSNKYYADSVKGRFTISRDNSKNTMYLQMNSLRAEDTAVYYCTRDRGITMGRGRYYYYYGMDVWGQGTTVTVSS
VL: EIVMTQSPATLSVSPGERATLSCRASQSVGSNLAWYQQKPGQAPRLLIYGASTRATGIPARFSGSGSGTEFTLTISSLQSEDFAVYYCQQYNNWPLTFGGGTKVEMKR
B14: the Kd in experiment [1] is about 0.36 nM. The “IC50, neutralization … (H2L2)” value in experiment [2] was about 0.81 ng/mL.

B15: 4.2c3 (antibody, V domains shown)
VH: QVQLVESGGGVVQPGRSLRLSCTASGFTFSGYGMHWVRQAPGKGLEWVAIIWYDGSNTYYADSAKGRFTISRDNSKNTLYLQMNSLRVEDTAVYYCARDRGISVAALWKYYYYHGLDVWGQGTTVTVSS
VL: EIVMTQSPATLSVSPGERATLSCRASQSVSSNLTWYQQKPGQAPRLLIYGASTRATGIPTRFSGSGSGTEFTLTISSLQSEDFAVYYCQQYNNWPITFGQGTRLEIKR
B15 gave a dissociation constant Kd in experiment [1] of about 0.12 nM.

B16: 4.7a6 (antibody, V domains shown)
VH: QVQLVESGGGVVQPGRSLRLSCTASGFTFSGYAMHWVRQAPVKGLEWVAIIWYDGSNKYYADSVKGRFTISRDNSKNTLYLQMNSLRAEDTAVYYCARDRGISEAAKWKYYYYYGMDVWGQGTTVTVSS
VL: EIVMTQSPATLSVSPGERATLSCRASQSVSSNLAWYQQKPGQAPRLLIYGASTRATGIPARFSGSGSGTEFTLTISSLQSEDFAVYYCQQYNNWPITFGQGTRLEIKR
The molecule B16 came in with a Kd in experiment [1] of about 0.13 nM.

B17: 4.9f12 (antibody, V domains shown)
VH: QVQLVESGGGVVQPGMSLRLSCTASGFTFSGYAMHWVRQAPVKGLEWVAIIWYDGSNKYYADSVKGRFTISRDNSKNTLYLQMNSLRAEDTAVYYCARDRGISEAAKWKYYYYYGMDVWGQGTTVTVSS
VL: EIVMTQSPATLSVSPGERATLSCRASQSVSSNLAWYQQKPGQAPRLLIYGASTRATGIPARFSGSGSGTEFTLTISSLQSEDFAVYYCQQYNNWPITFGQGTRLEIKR
Regarding B17, the Kd in experiment [1] is about 0.13 nM.

B18: 7.7f3 (antibody, V domains shown)
VH: QVQLVESGGGVVQPGRSLRLSCTASGFTFSGYGMHWVRQAPGKGLEWVAIIWYDGSNTYYTDSAKGRFTISRDNSKDTLYLQMNSLRVEDTAVYYCARDRGISVAALWKYYYYHGLDVWGQGTTTTVSS
VL: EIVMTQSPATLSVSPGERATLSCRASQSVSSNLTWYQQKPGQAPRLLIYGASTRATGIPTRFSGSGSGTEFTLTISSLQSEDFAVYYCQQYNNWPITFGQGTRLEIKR
In experiment [1], B18 had a Kd of about 0.12 nM.

B19: 7.5d3 (antibody, V domains shown)
VH: QVQLVESGGGVVQPGRSLRLSCAATGFTFSYYGMHWVRQAPGKGLEWVAVIWFDGTNIYYADSVRGRFTISRDNSKNTLYLQMNSLRAEDSAVYYCARDRRSSDWYVVFDYWGQGTLVTVSS
VL: DIQLTQSPSFLSASVGDRVTITCRASQGISSYLAWYQQKPGKAPKLLIYAASTLQSGVPSRFSGSGSGTEFTLTISSLQPEDFATYYCQQLNSYPWTFGQGTKVEIKR
Molecule B19 had an equilibrium dissociation constant (Kd) in experiment [1] of about 6 nM.

B20: 1.3g2 (antibody, V domains shown)
VH: QVQLVQSGAEVKKPGSSVKVSCKASGGTFSTYAISWVRQAPGQGLEWMGGIIPIFGTANYAQKFQGRVTIIADKSTNTAYMDLSSLRSEDTAVYYCAREGNLGYDVVTGYSYFVYWGQGTLVTVSS
VL: EIVLTQSPGTLSLSPGERATLSCRASQSVSSSYLAWYQQKPDQVPRLLIYGTSSRATGIPDRFSGSGSGTDFTLTISRLEPEDFAVYYCQQYGRSLTFGGGTKVEIKR
With B20, in experiment [1], the Kd was about 1.1 nM.

B21: 1.3h2 (antibody, V domains shown)
VH: QVQLVESGGGVVQPGRSLRLSCAASGFTFSRYGMHWVRQAPGKGLQWVAFIWYDGSNKYYADAVKVRFTISRDNSKNTLYLQMNSLRAEDTAVYYCATEGDYYGSGSYSRAEYFQEWGQGTLVTVSS
VL: EIVMTQSPATLSVSPGERATLSCRASQSVSINLAWYQQKPGQAPRLLIYDTSARATGIPARFSGSGSGTEFTLTISSLQSEDFAVYYCQQYNNWPFTFGPGTKVDIKR
For B21, the Kd in experiment [1] is about 1.9 nM.

B22: 7.2h5 (antibody, V domains shown)
VH: QVQLVQSGAEVKKPGSSVKVSCKASGGTFSSYAISWVRQAPGQGLEWMGGIIPIFGTVKNAQKFQGRVTITADKSTGTAYMELSSLRSEDTAVYYCARDHYYDSNDYYWYFDLWGRGTLVTVSS
VL: EIVMTQSPATLSVSPGERATLSCRASQSVSSNLAWYQKKPGQAPRLLIYGASTRVTGIPARFSGSGSGTEFTLTISSLQSEDFAVYYCQQYNNWPLTFGGGTKVEIKR
B22 returned a dissociation constant (Kd) in experiment [1] of about 0.36 nM.

The values are drawn from US20220275059A1 (HARBOUR ANTIBODIES, published 2022).
